In US20210032299A1 (Eli Lilly, published 2021):
Starred links: 1 amine or outer side, 2 acyl side, 3 side chain; linkers in the order of their positions; H or OH if unused. Non-standard residues stand in square brackets, D forms with d. Groups on a side chain read outwards from the residue. No end group written: not given here. *: point of attachment. C20 diacid = O=C(O)CCCCCCCCCCCCCCCCCCC(=O)*; γGlu = O=C(O)[C@H](CCC(=O)[*:2])N[*:1]; αMeF = C[C@](N)(Cc1ccccc1)C(=O)O; 4Pal = N[C@@H](Cc1ccncc1)C(=O)O; αMeL = CC(C)C[C@](C)(N)C(=O)O; AEEA = NCCOCCOCC(=O)O; Aib = CC(C)(N)C(=O)O

B1: Example 50 (peptide)
peptide: Y[Aib]EGT[αMeF]ISDYSI[αMeL]LDKK([AEEA-AEEA-γGlu-C20 diacid])HQ[Aib]DFVE[4Pal]LLAGGPSSGAPPPS-NH2
modifications: N-terminus assumed
SMILES: CC[C@H](C)[C@H](NC(=O)[C@H](CO)NC(=O)[C@H](Cc1ccc(O)cc1)NC(=O)[C@H](CC(=O)O)NC(=O)[C@H](CO)NC(=O)[C@@H](NC(=O)[C@](C)(Cc1ccccc1)NC(=O)[C@@H](NC(=O)CNC(=O)[C@H](CCC(=O)O)NC(=O)C(C)(C)NC(=O)[C@@H](N)Cc1ccc(O)cc1)[C@@H](C)O)[C@@H](C)CC)C(=O)N[C@@](C)(CC(C)C)C(=O)N[C@@H](CC(C)C)C(=O)N[C@@H](CC(=O)O)C(=O)N[C@@H](CCCCN)C(=O)N[C@@H](CCCCNC(=O)COCCOCCNC(=O)COCCOCCNC(=O)CC[C@H](NC(=O)CCCCCCCCCCCCCCCCCCC(=O)O)C(=O)O)C(=O)N[C@@H](Cc1c[nH]cn1)C(=O)N[C@@H](CCC(N)=O)C(=O)NC(C)(C)C(=O)N[C@@H](CC(=O)O)C(=O)N[C@@H](Cc1ccccc1)C(=O)N[C@H](C(=O)N[C@@H](CCC(=O)O)C(=O)N[C@@H](Cc1ccncc1)C(=O)N[C@@H](CC(C)C)C(=O)N[C@@H](CC(C)C)C(=O)N[C@@H](C)C(=O)NCC(=O)NCC(=O)N1CCC[C@H]1C(=O)N[C@@H](CO)C(=O)N[C@@H](CO)C(=O)NCC(=O)N[C@@H](C)C(=O)N1CCC[C@H]1C(=O)N1CCC[C@H]1C(=O)N1CCC[C@H]1C(=O)N[C@@H](CO)C(N)=O)C(C)C
B2: Example 60 (peptide)
peptide: Y[Aib]EGT[αMeF]ISDYSI[αMeL]LDKK([AEEA-AEEA-γGlu-C20 diacid])HQ[Aib]EFVE[4Pal]LLAQGPSSGAPPPS-NH2
modifications: N-terminus assumed
SMILES: CC[C@H](C)[C@H](NC(=O)[C@H](CO)NC(=O)[C@H](Cc1ccc(O)cc1)NC(=O)[C@H](CC(=O)O)NC(=O)[C@H](CO)NC(=O)[C@@H](NC(=O)[C@](C)(Cc1ccccc1)NC(=O)[C@@H](NC(=O)CNC(=O)[C@H](CCC(=O)O)NC(=O)C(C)(C)NC(=O)[C@@H](N)Cc1ccc(O)cc1)[C@@H](C)O)[C@@H](C)CC)C(=O)N[C@@](C)(CC(C)C)C(=O)N[C@@H](CC(C)C)C(=O)N[C@@H](CC(=O)O)C(=O)N[C@@H](CCCCN)C(=O)N[C@@H](CCCCNC(=O)COCCOCCNC(=O)COCCOCCNC(=O)CC[C@H](NC(=O)CCCCCCCCCCCCCCCCCCC(=O)O)C(=O)O)C(=O)N[C@@H](Cc1c[nH]cn1)C(=O)N[C@@H](CCC(N)=O)C(=O)NC(C)(C)C(=O)N[C@@H](CCC(=O)O)C(=O)N[C@@H](Cc1ccccc1)C(=O)N[C@H](C(=O)N[C@@H](CCC(=O)O)C(=O)N[C@@H](Cc1ccncc1)C(=O)N[C@@H](CC(C)C)C(=O)N[C@@H](CC(C)C)C(=O)N[C@@H](C)C(=O)N[C@@H](CCC(N)=O)C(=O)NCC(=O)N1CCC[C@H]1C(=O)N[C@@H](CO)C(=O)N[C@@H](CO)C(=O)NCC(=O)N[C@@H](C)C(=O)N1CCC[C@H]1C(=O)N1CCC[C@H]1C(=O)N1CCC[C@H]1C(=O)N[C@@H](CO)C(N)=O)C(C)C
B3: Example 61 (peptide)
peptide: Y[Aib]EGT[αMeF]ISDYSI[αMeL]LDKK([AEEA-AEEA-γGlu-C20 diacid])HQ[Aib]EFVE[4Pal]LLATGPSSGAPPPS-NH2
modifications: N-terminus assumed
SMILES: CC[C@H](C)[C@H](NC(=O)[C@H](CO)NC(=O)[C@H](Cc1ccc(O)cc1)NC(=O)[C@H](CC(=O)O)NC(=O)[C@H](CO)NC(=O)[C@@H](NC(=O)[C@](C)(Cc1ccccc1)NC(=O)[C@@H](NC(=O)CNC(=O)[C@H](CCC(=O)O)NC(=O)C(C)(C)NC(=O)[C@@H](N)Cc1ccc(O)cc1)[C@@H](C)O)[C@@H](C)CC)C(=O)N[C@@](C)(CC(C)C)C(=O)N[C@@H](CC(C)C)C(=O)N[C@@H](CC(=O)O)C(=O)N[C@@H](CCCCN)C(=O)N[C@@H](CCCCNC(=O)COCCOCCNC(=O)COCCOCCNC(=O)CC[C@H](NC(=O)CCCCCCCCCCCCCCCCCCC(=O)O)C(=O)O)C(=O)N[C@@H](Cc1c[nH]cn1)C(=O)N[C@@H](CCC(N)=O)C(=O)NC(C)(C)C(=O)N[C@@H](CCC(=O)O)C(=O)N[C@@H](Cc1ccccc1)C(=O)N[C@H](C(=O)N[C@@H](CCC(=O)O)C(=O)N[C@@H](Cc1ccncc1)C(=O)N[C@@H](CC(C)C)C(=O)N[C@@H](CC(C)C)C(=O)N[C@@H](C)C(=O)N[C@H](C(=O)NCC(=O)N1CCC[C@H]1C(=O)N[C@@H](CO)C(=O)N[C@@H](CO)C(=O)NCC(=O)N[C@@H](C)C(=O)N1CCC[C@H]1C(=O)N1CCC[C@H]1C(=O)N1CCC[C@H]1C(=O)N[C@@H](CO)C(N)=O)[C@@H](C)O)C(C)C
B4: Example 44 (peptide)
peptide: Y[Aib]EGT[αMeF]ISDYSIALDKK([AEEA-AEEA-γGlu-C20 diacid])HQ[Aib]DFVE[4Pal]LLEGGPSSGAPPPS-NH2
modifications: N-terminus assumed
SMILES: CC[C@H](C)[C@H](NC(=O)[C@H](CO)NC(=O)[C@H](Cc1ccc(O)cc1)NC(=O)[C@H](CC(=O)O)NC(=O)[C@H](CO)NC(=O)[C@@H](NC(=O)[C@](C)(Cc1ccccc1)NC(=O)[C@@H](NC(=O)CNC(=O)[C@H](CCC(=O)O)NC(=O)C(C)(C)NC(=O)[C@@H](N)Cc1ccc(O)cc1)[C@@H](C)O)[C@@H](C)CC)C(=O)N[C@@H](C)C(=O)N[C@@H](CC(C)C)C(=O)N[C@@H](CC(=O)O)C(=O)N[C@@H](CCCCN)C(=O)N[C@@H](CCCCNC(=O)COCCOCCNC(=O)COCCOCCNC(=O)CC[C@H](NC(=O)CCCCCCCCCCCCCCCCCCC(=O)O)C(=O)O)C(=O)N[C@@H](Cc1c[nH]cn1)C(=O)N[C@@H](CCC(N)=O)C(=O)NC(C)(C)C(=O)N[C@@H](CC(=O)O)C(=O)N[C@@H](Cc1ccccc1)C(=O)N[C@H](C(=O)N[C@@H](CCC(=O)O)C(=O)N[C@@H](Cc1ccncc1)C(=O)N[C@@H](CC(C)C)C(=O)N[C@@H](CC(C)C)C(=O)N[C@@H](CCC(=O)O)C(=O)NCC(=O)NCC(=O)N1CCC[C@H]1C(=O)N[C@@H](CO)C(=O)N[C@@H](CO)C(=O)NCC(=O)N[C@@H](C)C(=O)N1CCC[C@H]1C(=O)N1CCC[C@H]1C(=O)N1CCC[C@H]1C(=O)N[C@@H](CO)C(N)=O)C(C)C
B5: Example 48 (peptide)
peptide: Y[Aib]EGTFISDYSI[αMeL]LDKK([AEEA-AEEA-γGlu-C20 diacid])HQ[Aib]DFVE[4Pal]LLAGGPSSGAPPPS-NH2
modifications: N-terminus assumed
SMILES: CC[C@H](C)[C@H](NC(=O)[C@H](Cc1ccccc1)NC(=O)[C@@H](NC(=O)CNC(=O)[C@H](CCC(=O)O)NC(=O)C(C)(C)NC(=O)[C@@H](N)Cc1ccc(O)cc1)[C@@H](C)O)C(=O)N[C@@H](CO)C(=O)N[C@@H](CC(=O)O)C(=O)N[C@@H](Cc1ccc(O)cc1)C(=O)N[C@@H](CO)C(=O)N[C@H](C(=O)N[C@@](C)(CC(C)C)C(=O)N[C@@H](CC(C)C)C(=O)N[C@@H](CC(=O)O)C(=O)N[C@@H](CCCCN)C(=O)N[C@@H](CCCCNC(=O)COCCOCCNC(=O)COCCOCCNC(=O)CC[C@H](NC(=O)CCCCCCCCCCCCCCCCCCC(=O)O)C(=O)O)C(=O)N[C@@H](Cc1c[nH]cn1)C(=O)N[C@@H](CCC(N)=O)C(=O)NC(C)(C)C(=O)N[C@@H](CC(=O)O)C(=O)N[C@@H](Cc1ccccc1)C(=O)N[C@H](C(=O)N[C@@H](CCC(=O)O)C(=O)N[C@@H](Cc1ccncc1)C(=O)N[C@@H](CC(C)C)C(=O)N[C@@H](CC(C)C)C(=O)N[C@@H](C)C(=O)NCC(=O)NCC(=O)N1CCC[C@H]1C(=O)N[C@@H](CO)C(=O)N[C@@H](CO)C(=O)NCC(=O)N[C@@H](C)C(=O)N1CCC[C@H]1C(=O)N1CCC[C@H]1C(=O)N1CCC[C@H]1C(=O)N[C@@H](CO)C(N)=O)C(C)C)[C@@H](C)CC

What was measured:
[1] = molecular target: T1, human glucose-dependent insulinotropic polypeptide (GIP) receptor (human, UniProt P48546 22-466); experiment: SPA, displacement of [125I]-GIP from hGIPR membranes, 0.1% bacitracin
T1 construct: whole, on cells; Assayed as crude membranes of stably transfected CHO cells; also called hGIPR; human GIP receptor
T1 sequence (looked up): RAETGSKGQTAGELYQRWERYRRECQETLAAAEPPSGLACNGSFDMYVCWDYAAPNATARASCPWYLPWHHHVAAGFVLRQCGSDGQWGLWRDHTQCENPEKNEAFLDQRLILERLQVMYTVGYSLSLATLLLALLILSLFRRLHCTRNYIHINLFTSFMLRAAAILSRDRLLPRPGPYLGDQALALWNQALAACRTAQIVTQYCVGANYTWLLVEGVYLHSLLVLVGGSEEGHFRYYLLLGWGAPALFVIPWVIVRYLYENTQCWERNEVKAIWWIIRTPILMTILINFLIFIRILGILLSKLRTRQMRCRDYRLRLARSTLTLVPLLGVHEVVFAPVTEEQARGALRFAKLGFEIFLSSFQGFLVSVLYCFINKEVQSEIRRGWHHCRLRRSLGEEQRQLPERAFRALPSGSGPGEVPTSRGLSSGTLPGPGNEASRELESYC

human glucagon receptor = molecular target: T2, human glucagon receptor (human, UniProt P47871 26-477); experiment: SPA, displacement of [125I]-Gcg from hGcgR membranes, 0.1% bacitracin
T2 construct: whole, on cells; Assayed as crude membranes of stably transfected HEK293 cells; also called hGcgR; GcgR
Procedure, shortened: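 Binding buffer: 25 mM HEPES pH 7.4, 2.5 mM CaCl₂, 1 mM MgCl₂, 0.003% Tween-20, protease inhibitors without EDTA. Counted by scintillation after 12 h incubation/settling at room temperature. Four-parameter nonlinear fit; Kᵢ given as geometric mean ± SEM of independent replicates run on different days.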

human GLP-1 receptor = molecular target: T3, human GLP-1 receptor (human, UniProt P43220 24-463); experiment: SPA, displacement of [125I]-GLP-1 from hGLP-1R membranes, 0.1% bacitracin
T3 construct: whole, on cells; Assayed as crude membranes of stably transfected HEK293 cells; also called hGLP1R; hGLP-1R
Procedure, shortened: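 Binding buffer: 25 mM HEPES pH 7.4, 2.5 mM CaCl₂, 1 mM MgCl₂, 0.1% bacitracin, 0.003% Tween-20, protease inhibitors without EDTA. Four-parameter nonlinear regression; Kᵢ given as geometric mean ± SEM, n = independent replicates run on different days.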

T2 sequence (P47871 26-477): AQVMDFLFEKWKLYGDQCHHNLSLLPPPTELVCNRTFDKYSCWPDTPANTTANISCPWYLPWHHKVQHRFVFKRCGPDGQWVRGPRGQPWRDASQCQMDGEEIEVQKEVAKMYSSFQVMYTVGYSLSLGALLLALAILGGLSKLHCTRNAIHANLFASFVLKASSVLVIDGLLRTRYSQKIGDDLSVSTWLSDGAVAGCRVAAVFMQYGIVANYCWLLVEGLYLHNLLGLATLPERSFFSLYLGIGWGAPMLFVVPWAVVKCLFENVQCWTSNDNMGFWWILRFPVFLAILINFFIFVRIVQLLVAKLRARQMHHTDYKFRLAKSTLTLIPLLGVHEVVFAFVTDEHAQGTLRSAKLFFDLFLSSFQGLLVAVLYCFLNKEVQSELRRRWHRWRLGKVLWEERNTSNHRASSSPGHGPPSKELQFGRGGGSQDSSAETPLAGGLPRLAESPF

| Binder | Ki [1] | Ki (human glucagon receptor) | Ki (human GLP-1 receptor) |
| --- | --- | --- | --- |
| B1 | 0.0501 nM | 23.4 nM | 34.9 nM |
| B2 | 0.039 nM | 26.2 nM | 51.4 nM |
| B3 | 0.0665 nM | 80.4 nM | 135 nM |
| B4 | 0.059 nM | 50 nM | 209 nM |
| B5 | 0.0498 nM | 267 nM | 211 nM |
